The supplement of paper PMC10126150
± gives the standard deviation of the averaged measurements.

System: ATP
Test: switch fluorescence ratio, 500 uM ATP over buffer (Cy3 cluster intensity, sum of 5 cycles each) (fold (ratio)); higher = stronger signal-on switching upon ATP binding; sequences stand for … in TCGTCGGCAGCGTCAGATGTGTATAAGAGACAGTTTTTTTTTTTTTTTTTTTTTTTTT…TC
Conditions: aptamer strand: ATP DNA aptamer (quencher-CACCTGGGGGAGTATTGCGGAGGAAGG + anchor), 100 nM annealed; ATP concentration: 500 uM
Method in brief: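 Imaging in selection buffer was followed by imaging after 15 min with 500 uM ATP at 22 °C, for Cy3-labelled switching-strand clusters annealed to 100 nM quencher-labelled ATP aptamer on a modified Illumina MiSeq flow-cell. Five of these buffer/ATP cycles ran, separated by NaOH stripping and re-annealing. The fluorescence ratio per cluster is summed target-cycle over summed buffer-cycle Cy3 intensity, averaged per switch-domain sequence; clusters outside 100-1000 RFU were removed.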
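Further: ATP exposure 15 min at 22 °C before imaging.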

Sequence | switch fluorescence ratio
AGTTAATGTT | 1.01 ± 0.0026
AGTTACAGCT | 1.03 ± 0.032
AGTTACAGGG | 1.05 ± 0.019
AGTTAGACGA | 1.01 ± 0.013
AGTTAGGGCA | 0.988 ± 0.042
AGTTAGGGGT | 0.987 ± 0.02
AGTTAGGGTC | 1 ± 0.012
AGTTAGGTAG | 0.9939 ± 0.0081
AGTTAGTCTG | 1.01 ± 0.04
AGTTAGTGAC | 1.02 ± 0.024
AGTTATAAGT | 0.979 ± 0.01
AGTTATAATT | 1.005 ± 0.0076
AGTTATATGT | 0.985 ± 0.037
AGTTATCAGG | 1.06 ± 0.024
AGTTATTAGG | 1.02 ± 0.032
AGTTCAGTAT | 0.983 ± 0.019
AGTTCGGGGA | 0.992 ± 0.014
AGTTCGTAGA | 0.966 ± 0.048
AGTTGAGCAG | 1.02 ± 0.021
AGTTGAGGGG | 0.985 ± 0.034
AGTTGATCCA | 0.982 ± 0.015
AGTTGCGGGA | 1.0114 ± 0.00031
AGTTGGAAAA | 0.997 ± 0.01

Sequence | switch fluorescence ratio
AGTTGGAGGA | 0.991 ± 0.015
AGTTGGGGAT | 0.986 ± 0.04
AGTTGGGGGT | 0.998 ± 0.025
AGTTGGGGTG | 0.989 ± 0.034
AGTTGGTAAT | 0.963 ± 0.06
AGTTGGTTAG | 1.004 ± 0.005
AGTTGTCTCG | 1.01 ± 0.058
AGTTGTTGGA | 1 ± 0.047
AGTTTAAAAC | 1.02 ± 0.0077
AGTTTACTGG | 0.9626 ± 0.0022
AGTTTACTGT | 1.02 ± 0.072
AGTTTATGTG | 0.9746 ± 0.0073
AGTTTCCGGA | 0.992 ± 0.016
AGTTTCTTAC | 1.01 ± 0.024
AGTTTGAAGG | 0.9894 ± 0.0073
AGTTTGAGTA | 1.01 ± 0.027
AGTTTGATGT | 1 ± 0.023
AGTTTGCGGG | 1.006 ± 0.0094
AGTTTGGATA | 0.97 ± 0.028
AGTTTGGGGA | 0.979 ± 0.015
AGTTTGGGT | 0.985 ± 0.032
AGTTTGTACG | 1.04 ± 0.024
AGTTTGTTCT | 0.999 ± 0.01

Sequence | switch fluorescence ratio
AGTTTTCATG | 1.02 ± 0.017
AGTTTTCGTG | 0.99 ± 0.03
AGTTTTGCGC | 0.972 ± 0.034
AGTTTTGGCG | 0.973 ± 0.0047
AGTTTTGTTA | 1.02 ± 0.019
AGTTTTGTTC | 1.01 ± 0.019
AGTTTTGTTG | 0.989 ± 0.036
AGTTTTTACC | 1.01 ± 0.046
AGTTTTTCAA | 0.9984 ± 0.0073
ATAAAAACCG | 1.01 ± 0.053
ATAAAAAGCA | 0.995 ± 0.04
ATAAAAAGGT | 0.987 ± 0.013
ATAAAAAGTT | 0.984 ± 0.034
ATAAAAGCTT | 1.03 ± 0.014
ATAAAAGGGG | 1.001 ± 0.0097
ATAAAAGTCC | 0.979 ± 0.017
ATAAAATTA | 1.011 ± 0.01
ATAAAGAAGT | 1.007 ± 0.0052
ATAAAGATGG | 0.95924 ± 0.00085
ATAAAGCATA | 1.03 ± 0.026
ATAAAGGGAT | 1 ± 0.034
ATAAAGGTCG | 1.06 ± 0.1
ATAACAAATT | 1.03 ± 0.031

Sequence | switch fluorescence ratio
ATAACAGGGC | 0.952 ± 0.037
ATAACGATCT | 1.04 ± 0.022
ATAACGGCCT | 1.007 ± 0.0099
ATAACTTTTT | 0.992 ± 0.054
ATAAGAAGTG | 1.05 ± 0.072
ATAAGACTGG | 0.9819 ± 0.0053
ATAAGAGACT | 1.01 ± 0.03
ATAAGATATG | 0.999 ± 0.012
ATAAGATTAC | 1.012 ± 0.0091
ATAAGCCTGG | 1.01 ± 0.041
ATAAGCGAAG | 0.993 ± 0.028
ATAAGCGCAG | 1.008 ± 7e-05
ATAAGGAGTG | 0.996 ± 0.021
ATAAGGATCT | 1.03 ± 0.016
ATAAGGCAGG | 0.999 ± 0.024
ATAAGGGATG | 0.998 ± 0.017
ATAAGGGGTT | 0.993 ± 0.039
ATAAGTGATA | 1.02 ± 0.025
ATAAGTGCGA | 0.9826 ± 0.002
ATAAGTGTCT | 1.02 ± 0.011
ATAAGTTAGT | 0.989 ± 0.016
ATAATAATGT | 1.002 ± 0.0045
ATAATAATTT | 1.02 ± 0.011

Sequence | switch fluorescence ratio
ATAATACGCC | 1.17 ± 0.013
ATAATAGGGA | 0.982 ± 0.014
ATAATATTTG | 0.985 ± 0.015
ATAATGATGT | 0.97 ± 0.026
ATAATGATTG | 0.994 ± 0.016
ATAATTCGGG | 1 ± 0.049
ATAATTCGTG | 1.01 ± 0.027
ATAATTGGGA | 0.99 ± 0.041
ATAATTGTTT | 0.984 ± 0.042
ATAATTTAGC | 0.961 ± 0.02
ATACAAAA | 1.02 ± 0.048
ATACAAGACT | 1.06 ± 0.03
ATACAATAGA | 1.004 ± 0.0087
ATACACAATT | 1.08 ± 0.054
ATACAGGGTG | 1.24 ± 0.019
ATACAGGTCT | 1.03 ± 0.011
ATACATATTT | 1.035 ± 0.0075
ATACATGTAG | 0.9845 ± 0.0047
ATACATTTGG | 0.999 ± 0.014
ATACCAGGGG | 1.08 ± 0.19
ATACCATCGG | 0.981 ± 0.024
ATACCATGGT | 0.992 ± 0.053
ATACCGAGTA | 1.01 ± 0.049

Sequence | switch fluorescence ratio
ATACCGGATT | 1.01 ± 0.046
ATACCTTATG | 1 ± 0.029
ATACCTTCGT | 1.692 ± 0.012
ATACGACTTA | 1.04 ± 0.014
ATACGATGAT | 1.04 ± 0.017
ATACGATGTA | 0.986 ± 0.014
ATACGGGGGG | 0.989 ± 0.017
ATACGGGTGC | 1.26 ± 0.043
ATACGTGGTG | 1.09 ± 0.086
ATACGTTATT | 1.21 ± 0.057
ATACTATCTA | 1.03 ± 0.017
ATACTCCGGA | 1.16 ± 0.055
ATACTCGTGG | 1.01 ± 0.042
ATACTCGTTA | 1.01 ± 0.024
ATACTGTGTT | 1.014 ± 0.0084
ATACTTCATT | 1.03 ± 0.032
ATAGAAGGGA | 0.991 ± 0.044
ATAGAATGAT | 0.995 ± 0.017
ATAGAATGCG | 0.9955 ± 0.0012
ATAGAATTAA | 0.989 ± 0.013
ATAGAATTGT | 0.9803 ± 0.0091
ATAGACGTCC | 0.993 ± 0.015
ATAGAGAGGT | 1.01 ± 0.012

Sequence | switch fluorescence ratio
ATAGAGCTTT | 1.07 ± 0.085
ATAGAGGATA | 0.9861 ± 0.0073
ATAGATAGCC | 0.96 ± 0.015
ATAGATATAG | 1.027 ± 0.0096
ATAGATGTTG | 0.9812 ± 0.0069
ATAGCATACG | 1.28 ± 0.047
ATAGCATGTT | 1 ± 0.038
ATAGCGGAAT | 1.007 ± 0.01
ATAGCGGGGG | 0.998 ± 0.031
ATAGCGTATT | 0.998 ± 0.049
ATAGCTAACT | 1.02 ± 0.022
ATAGCTATAA | 1.003 ± 0.0029
ATAGGAAAGG | 0.999 ± 0.035
ATAGGAAATC | 2.74 ± 0.75
ATAGGACGCA | 1.265 ± 0.0027
ATAGGAGGGT | 0.989 ± 0.014
ATAGGCATGC | 1.06 ± 0.067
ATAGGGAGTA | 0.979 ± 0.061
ATAGGGATTC | 1.02 ± 0.038
